T1: human B7-H4 extracellular domain (human, UniProt Q7Z7D3 29-258)
T1 construct: For SPR it says only human B7-H4 ECD; also called Hu B7-H4 ECD; huB7-H4 ECD
T1 sequence: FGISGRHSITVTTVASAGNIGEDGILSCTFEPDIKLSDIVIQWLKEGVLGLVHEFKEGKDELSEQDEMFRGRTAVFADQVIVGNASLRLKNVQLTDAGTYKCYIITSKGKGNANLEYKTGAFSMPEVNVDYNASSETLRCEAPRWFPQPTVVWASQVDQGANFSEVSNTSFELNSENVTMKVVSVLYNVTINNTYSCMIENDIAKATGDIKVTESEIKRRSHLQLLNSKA

T2: human B7-H4 on cells (human, UniProt Q7Z7D3 25-282)
T2 sequence (looked up): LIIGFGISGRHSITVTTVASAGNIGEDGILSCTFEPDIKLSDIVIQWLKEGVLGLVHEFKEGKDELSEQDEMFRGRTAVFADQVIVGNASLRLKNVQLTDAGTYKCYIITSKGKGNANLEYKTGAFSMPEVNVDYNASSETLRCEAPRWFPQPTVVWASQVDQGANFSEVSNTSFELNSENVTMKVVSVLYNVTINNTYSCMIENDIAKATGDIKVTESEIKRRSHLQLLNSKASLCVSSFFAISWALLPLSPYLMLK


What was measured:
[1] = target: T1, human B7-H4 extracellular domain; test: competition ELISA on coated huB7-H4 ECD; competitor biotinylated 0058 (by series, not given)
[2] = target: T2, human B7-H4 on cells; test: cell-based or functional assay
[3] = target: T3, human CD3 (delta/epsilon heterodimer) (human, UniProt P07766 23-126; P04234 22-105); test: SPR 25 C; CD3 delta/epsilon on anti-His chip, bispecific analyte
T3 construct: captured on an anti-His chip, so it carries a His tag; also called huCD3
T3 sequence (P07766 23-126, stated change not applied, chain 1 of 2): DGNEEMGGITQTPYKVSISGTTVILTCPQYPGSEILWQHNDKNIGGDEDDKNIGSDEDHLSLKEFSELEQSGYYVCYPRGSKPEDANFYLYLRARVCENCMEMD
T3 sequence (P04234 22-105, stated change not applied, chain 2 of 2): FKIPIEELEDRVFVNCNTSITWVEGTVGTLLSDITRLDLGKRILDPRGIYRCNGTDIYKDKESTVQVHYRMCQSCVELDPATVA

[4] = target: T4, cyno CD3 (delta/epsilon heterodimer) (cyno, UniProt Q95LI5 22-117; Q95LI8 22-105); test: as above
T4 construct: also called cyCD3
T4 sequence (Q95LI5 22-117, stated change not applied, chain 1 of 2): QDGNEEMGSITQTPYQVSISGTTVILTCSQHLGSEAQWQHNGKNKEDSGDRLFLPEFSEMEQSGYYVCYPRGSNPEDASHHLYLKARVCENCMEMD
T4 sequence (Q95LI8 22-105, stated change not applied, chain 2 of 2): as the sequence (P04234 22-105, stated change not applied, chain 2 of 2) above, with I5V, N15K, I20V, S32T, D33N, I34N, T64A, S74N, V83L counted along it

Row | Binder | IC50 [1] | further results
1 | B7-H4 antibody 0562 (antibody, human IgG1, kappa, V domains shown) VH: EVQLLESGGGLVQPGGSLRLSCAASGFTFSSYAMSWVRQAPGKGLEWVSAISGGGGSTQYADSVKGRFTISRDNSKNTLYLQMNSLRAEDTAVYYCARDIQWFGESTLFDYWGQGTLVTVSS VL: DIQLTQSPSTLSASVGDRVTITCRASQSIRSWLAWFQQKPGKAPKLLIYKASSLEGGVPSRFSGSGSGTEFTLTISSLQPDDFATYYCQQYNSYSRTFGQGTKVEIKR | 2.4 nM | –
2 | B7-H4 antibody 0274 (antibody, human IgG1, kappa, V domains shown) VH: EVQLLESGGGLVQPGGSLRLSCAASGFTFSSYAMSWVRQAPGKGLEWVSAISGGGGSTYYADSVKGRFTISRDNSKNTLYLQMNSLRAEDTAVYYCARDIQWFGESTLFDYWGQGTLVTVSS VL: DIQMTQSPSSLSASVGDRVTITCRASQSIRSWLAWFQQKPGKAPKLLIYKASSLEGGVPSRFSGSGSGTDFTLTISSLQPEDFATYYCQQYNSYSRTFGQGTKVEIKR | 4.2 nM | –
3 | B7-H4 antibody 0567 (antibody, human IgG1, kappa, V domains shown) VH: EVQLLESGGGLVQPGGSLRLSCAASGFTFSSYAMSWVRQAPGKGLEWVSAISGGGGSTYYADSVKGRFTISRDNSKNTLYLQMNSLRAEDTAVYYCARDIQWFGESTLFDYWGQGTLVTVSS VL: DIQMTQSPSSLSASVGDRVTITCRASQSTRSHLAWYQQKPGKAPKLLIYKASSLEGGVPSRFSGSGSGTDFTLTISSLQPEDFATYYCQQYGSYSRTFGQGTKVEIKR | 5.4 nM | –
4 | B7-H4 antibody 0564 (antibody, human IgG1, kappa, V domains shown) VH: EVQLLESGGGLVQPGGSLRLSCAASGFTFSSYAMSWVRQAPGKGLEWVSAISGGGGSTYYADSVKGRFTISRDNSKNTLYLQMNSLRAEDTAVYYCARDIQWHGESTLFDYWGQGTLVTVSS VL: DIQLTQSPSTLSASVGDRVTITCRASQSIRSWLAWFQQKPGKAPKLLIYKASSLEGGVPSRFSGSGSGTEFTLTISSLQPDDFATYYCQQYNSYSRTFGQGTKVEIKR | 35.2 nM | –
5 | B7-H4 antibody 0570 (antibody, human IgG1, kappa, V domains shown) VH: EVQLLESGGGLVQPGGSLRLSCAASGFTFSSYAMSWVRQAPGKGLEWVSAISGGGGSTYYADSVKGRFTISRDNSKNTLYLQMNSLRAEDTAVYYCARDIQWFGESTLFDYWGQGTLVTVSS VL: DIQMTQSPSSLSASVGDRVTITCRASQSTRSWLAWYQQKPGKAPKLLIYKASSLESGVPSRFSGSGSGTDFTLTISSLQPEDFATYYCQQYGSYSRTFGQGTKVEIKR | 3.1 nM | –
6 | B7-H4 antibody 0565 (antibody, human IgG1, kappa, V domains shown) VH: EVQLLESGGGLVQPGGSLRLSCAASGFTFSSYAMSWVRQAPGKGLEWVSAISGGGGSTYYADSVKGRFTISRDNSKNTLYLQMNSLRAEDTAVYYCARDIQWFGRSTLFDYWGQGTLVTVSS VL: DIQLTQSPSTLSASVGDRVTITCRASQSIRSWLAWFQQKPGKAPKLLIYKASSLEGGVPSRFSGSGSGTEFTLTISSLQPDDFATYYCQQYNSYSRTFGQGTKVEIKR | 22.7 nM | –
7 | B7-H4xCD3 bispecific antibody 0077 (bispecific antibody, also called anti-B7-H4 clone 19D3) heavy 1: QVQLQQWGAGLLKPSETLSLTCALYGGSFSGYYWNWIRQPPGKGLEWIGEINHSGSANYNPSLKSRVTISVDTSKNQFSLRLSSVTAADTAVYYCARGLYNWNVDRWGQGTLVTVSSASTKGPSVFPLAPCSRSTSESTAALGCLVKDYFPEPVTVSWNSGALTSGVHTFPAVLQSSGLYSLSSVVTVPSSNFGTQTYTCNVDHKPSNTKVDKTVERKCEVECPECPAPPVAGPSVFLFPPKPKDTLMISRTPEVTCVVVAVSHEDPEVQFNWYVDGVEVHNAKTKPREEQFNSTFRVVSVLTVVHQDWLNGKEYKCKVSNKGLPSSIEKTISKTKGQPREPQVYTLPPSREEMTKNQVSLTCEVKGFYPSDIAVEWESNGQPENNYKTTPPMLDSDGSFFLYSKLTVDKSRWQQGNVFSCSVMHEALHNHYTQKSLSLSPGK light 1: not shown heavy 2: EVQLVESGGGLVQPGGSLRLSCAASGFTFSDYYMTWVRQAPGKGLEWVAFIRNQARGYTSDHNPSVKGRFTISRDNAKNSLYLQMNSLRAEDTAVYYCARDRPSYYVLDYWGQGTTVTVSSASTKGPSVFPLAPCSRSTSESTAALGCLVKDYFPEPVTVSWNSGALTSGVHTFPAVLQSSGLYSLSSVVTVPSSNFGTQTYTCNVDHKPSNTKVDKTVERKCRVRCPRCPAPPVAGPSVFLFPPKPKDTLMISRTPEVTCVVVAVSHEDPEVQFNWYVDGVEVHNAKTKPREEQFNSTFRVVSVLTVVHQDWLNGKEYKCKVSNKGLPSSIEKTISKTKGQPREPQVYTLPPSREEMTKNQVSLTCLVKGFYPSDIAVEWESNGQPENNYKTTPPMLDSDGSFFLYSRLTVDKSRWQQGNVFSCSVMHEALHNHYTQKSLSLSPGK light 2: DIQMTQSPSSLSASVGDRVTITCTSSQSLFNVRSQKNYLAWYQQKPGKAPKLLIYWASTRESGVPSRFSGSGSGTDFTLTISSLQPEDFATYYCKQSYDLFTFGGGTKVEIKRTVAAPSVFIFPPSDEQLKSGTASVVCLLNNFYPREAKVQWKVDNALQSGNSQESVTEQDSKDSTYSLSSTLTLSKADYEKHKVYACEVTHQGLSSPVTKSFNRGEC | – | T cell mediated tumor cell killing EC50, HCC1954-Luc [2]: 93 nM; Kd [3]: 12.7 nM; koff [3]: 0.00536 s⁻¹; kon [3]: 423000 M⁻¹ s⁻¹; Kd [4]: 13.7 nM; koff [4]: 0.00504 s⁻¹; kon [4]: 369000 M⁻¹ s⁻¹

Second part, led by results:

Row | IC50 [1] | Binder | further results
8 | 0.42 nM | B7-H4 antibody 1115 (antibody, human IgG1, kappa, V domains shown) VH: EVQLLESGGGLVQPGGSLRLSCAASGFTFSSYAMSWVRQAPGKGLEWVSAISGGGGSTYYADSVKGRFTISRDNSKNTLYLQMNSLRAEDTAVYYCARDIQWYGESTLFDYWGQGTLVTVSS VL: DIQMTQSPSSLSASVGDRVTITCRASQSTRSWLAWYQQKPGKAPKLLIYKASSLESGVPSRFSGSGSGTDFTLTISSLQPEDFATYYCQQYGSYSRTFGQGTKVEIKR | –
9 | 2 nM | B7-H4 antibody 0563 (antibody, human IgG1, kappa, V domains shown) VH: EVQLLESGGGLVQPGGSLRLSCAASGFTFSSYAMSWVRQAPGKGLEWVSAISGGGGSTYYADSVKGRFTISRDNSKNTLYLQMNSLRAEDTAVYYCARDIQWYGESTLFDYWGQGTLVTVSS VL: DIQLTQSPSTLSASVGDRVTITCRASQSIRSWLAWFQQKPGKAPKLLIYKASSLEGGVPSRFSGSGSGTEFTLTISSLQPDDFATYYCQQYNSYSRTFGQGTKVEIKR | –
10 | 0.15 nM | B7-H4 antibody 1117 (antibody, human IgG1, kappa, V domains shown) VH: EVQLLESGGGLVQPGGSLRLSCAASGFTFSSYAMSWVRQAPGKGLEWVSAISGGGGSTYYADSVKGRFTISRDNSKNTLYLQMNSLRAEDTAVYYCARDIQWYGESTLFDYWGQGTLVTVSS VL: DIQMTQSPSSLSASVGDRVTITCRASQSTRSWLAWLQQKPGKAPKLLIYKASSLESGVPSRFSGSGSGTDFTLTISSLQPEDFATYYCQQYGSYSRTFGQGTKVEIKR | –
11 | 1 nM | B7-H4 antibody 1113 (antibody, human IgG1, kappa, V domains shown) VH: EVQLLESGGGLVQPGGSLRLSCAASGFTFSSYAMSWVRQAPGKGLEWVSAISGGGGSTYYADSVKGRFTISRDNSKNTLYLQMNSLRAEDTAVYYCARDIQWYGESTLFDYWGQGTLVTVSS VL: DIQMTQSPSSLSASVGDRVTITCRASQSTRSWLAWYQQKPGKAPKLLIYKASSLEGGVPSRFSGSGSGTDFTLTISSLQPEDFATYYCQQYGSYSRTFGQGTKVEIKR | –
12 | 0.16 nM | B7-H4 antibody 1116 (antibody, human IgG1, kappa, V domains shown) VH: EVQLLESGGGLVQPGGSLRLSCAASGFTFSSYAMSWVRQAPGKGLEWVSAISGGGGSTYYADSVKGRFTISRDNSKNTLYLQMNSLRAEDTAVYYCARDIQWYGESTLFDYWGQGTLVTVSS VL: DIQMTQSPSSLSASVGDRVTITCRASQSTRSWLAWHQQKPGKAPKLLIYKASSLESGVPSRFSGSGSGTDFTLTISSLQPEDFATYYCQQYGSYSRTFGQGTKVEIKR | –
13 | 1.7 nM | B7-H4 antibody 0572 (antibody, human IgG1, kappa, V domains shown) VH: EVQLLESGGGLVQPGGSLRLSCAASGFTFSSYAMSWVRQAPGKGLEWVSAISGGGGSTYYADSVKGRFTISRDNSKNTLYLQMNSLRAEDTAVYYCARDIQWFGESTLFDYWGQGTLVTVSS VL: DIQMTQSPSSLSASVGDRVTITCRASQSTRSWLAWLQQKPGKAPKLLIYKASSLESGVPSRFSGSGSGTDFTLTISSLQPEDFATYYCQQYGSYSRTFGQGTKVEIKR | –
14 | 2.1 nM | B7-H4 antibody 0571 (antibody, human IgG1, kappa, V domains shown) VH: EVQLLESGGGLVQPGGSLRLSCAASGFTFSSYAMSWVRQAPGKGLEWVSAISGGGGSTYYADSVKGRFTISRDNSKNTLYLQMNSLRAEDTAVYYCARDIQWFGESTLFDYWGQGTLVTVSS VL: DIQMTQSPSSLSASVGDRVTITCRASQSTRSWLAWHQQKPGKAPKLLIYKASSLESGVPSRFSGSGSGTDFTLTISSLQPEDFATYYCQQYGSYSRTFGQGTKVEIKR | –
